Experimental data as given in the supplement of paper PMC7125110.
± gives the standard error. For part of these data: Variants at the floor of the assay were thinned out.

B1: glmS ribozyme (parent)
chain: AUAAAAGCGCCAGAACUACAGAAAUGUAGUUGACGAGGAGGAGGUUUAUCGAAUUUUCGGCGGAUGCCUCCAAA

How the values were obtained:
Conditions in all cases: with glucosamine-6-phosphate
glucosamine-6-phosphate [1] = variants of: B1; test: kcat; higher = faster cleavage; RNA array
Outline: (§1)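 Glucosamine-6-phosphate in HEPES/KCl/Mg(OAc)2 buffer, at 40 μM to 10 mM, was flowed over barcoded ribozyme variants transcribed in situ by E. coli RNA polymerase on sequenced MiSeq chips. Tracking was through a hybridised Cy3 probe at 37 °C. kobs, kcat and KM came from exponential decay fits and weighted Michaelis–Menten fits of normalised per-tile medians.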

glucosamine-6-phosphate [2] = variants of: B1; test: KM; higher = weaker cofactor use; RNA array
Outline: as §1

glucosamine-6-phosphate [3] = variants of: B1; test: self-cleavage kobs at 40 uM GlcN6P; higher = faster cleavage; RNA array
Outline: as §1

glucosamine-6-phosphate [4] = variants of: B1; test: self-cleavage kobs at 160 uM GlcN6P; higher = faster cleavage; RNA array
Outline: as §1

glucosamine-6-phosphate [5] = variants of: B1; test: self-cleavage kobs at 640 uM GlcN6P; higher = faster cleavage; RNA array
Outline: as §1

glucosamine-6-phosphate [6] = variants of: B1; test: self-cleavage kobs at 2500 uM GlcN6P; higher = faster cleavage; RNA array
Outline: as §1

glucosamine-6-phosphate [7] = variants of: B1; test: self-cleavage kobs at 10000 uM GlcN6P; higher = faster cleavage; RNA array
Outline: as §1

| Variant | kcat (glucosamine-6-phosphate [1]) | KM (glucosamine-6-phosphate [2]) | self-cleavage kobs at 40 uM GlcN6P (glucosamine-6-phosphate [3]) | self-cleavage kobs at 160 uM GlcN6P (glucosamine-6-phosphate [4]) | self-cleavage kobs at 640 uM GlcN6P (glucosamine-6-phosphate [5]) | self-cleavage kobs at 2500 uM GlcN6P (glucosamine-6-phosphate [6]) | self-cleavage kobs at 10000 uM GlcN6P (glucosamine-6-phosphate [7]) |
| --- | --- | --- | --- | --- | --- | --- | --- |
| A15G U54G | 0.0486 ± 0.02 s⁻¹ | 2200 ± 1000 µM | 0.000945 ± 8.8e-05 s⁻¹ | 0.00385 ± 0.00091 s⁻¹ | 0.00802 ± 0.0015 s⁻¹ | 0.0243 ± 0.0097 s⁻¹ | 0.0509 ± 0.011 s⁻¹ |
| U45G A48G | 2.93e-05 ± 2.6e-06 s⁻¹ | 2270 ± 860 µM | – | – | – | – | – |
| A14U A42G G44U G63U | – | – | < 1e-05 s⁻¹ | – | – | < 1e-05 s⁻¹ | – |
| C10G G51C | – | – | < 1e-05 s⁻¹ | < 1e-05 s⁻¹ | < 1e-05 s⁻¹ | – | < 1e-05 s⁻¹ |
| U30G A39G | – | – | 0.000352 ± 8.4e-05 s⁻¹ | 0.000654 ± 0.00021 s⁻¹ | 0.00235 ± 0.00063 s⁻¹ | 0.00681 ± 0.0014 s⁻¹ | 0.0183 ± 0.007 s⁻¹ |
| G35U G51U | – | 31.5 ± 11 µM | – | – | – | – | – |
| C11A G38A G44C | – | – | < 1e-05 s⁻¹ | – | – | – | < 1e-05 s⁻¹ |
| A14U A33G | – | – | < 1e-05 s⁻¹ | – | < 1e-05 s⁻¹ | – | < 1e-05 s⁻¹ |
| C58A C61U G66U | – | – | < 1e-05 s⁻¹ | – | – | – | – |
| A15U U31G | 0.00129 ± 0.00024 s⁻¹ | 2960 ± 980 µM | 1.82e-05 ± 8.3e-06 s⁻¹ | 0.000104 ± 2.2e-05 s⁻¹ | 0.000193 ± 3.7e-05 s⁻¹ | 0.000572 ± 9.4e-05 s⁻¹ | 0.00102 ± 0.00012 s⁻¹ |
| G51C G66C | – | – | < 1e-05 s⁻¹ | < 1e-05 s⁻¹ | < 1e-05 s⁻¹ | – | – |
| C11A A33U | – | 983 ± 40 µM | – | – | – | – | – |
| C34U G62C | – | – | < 1e-05 s⁻¹ | < 1e-05 s⁻¹ | < 1e-05 s⁻¹ | < 1e-05 s⁻¹ | < 1e-05 s⁻¹ |
| C50U G62U | – | – | < 1e-05 s⁻¹ | – | – | – | < 1e-05 s⁻¹ |
| G63U C67G | – | – | < 1e-05 s⁻¹ | < 1e-05 s⁻¹ | – | – | < 1e-05 s⁻¹ |
| U45A G62U | – | – | < 1e-05 s⁻¹ | < 1e-05 s⁻¹ | < 1e-05 s⁻¹ | < 1e-05 s⁻¹ | – |
| G59A C71A | < 1e-05 s⁻¹ | – | < 1e-05 s⁻¹ | – | – | – | – |
| C34A C71G | 1.15e-05 ± 3.9e-06 s⁻¹ | – | – | < 1e-05 s⁻¹ | – | – | – |
| G44U C58G | – | – | < 1e-05 s⁻¹ | < 1e-05 s⁻¹ | < 1e-05 s⁻¹ | < 1e-05 s⁻¹ | < 1e-05 s⁻¹ |
| C10U U31G | 2.34e-05 ± 1.5e-06 s⁻¹ | 552 ± 200 µM | < 1e-05 s⁻¹ | – | – | – | – |
| C16U A36C | < 1e-05 s⁻¹ | 28.4 ± 13 µM | < 1e-05 s⁻¹ | – | < 1e-05 s⁻¹ | < 1e-05 s⁻¹ | – |
